This is an account of results in PMC3553973.

The data set deals with T1, SacUVDE (UV damage endonuclease) (Sulfolobus acidocaldarius, UniProt Q4J9T1 1-289).
T1 sequence: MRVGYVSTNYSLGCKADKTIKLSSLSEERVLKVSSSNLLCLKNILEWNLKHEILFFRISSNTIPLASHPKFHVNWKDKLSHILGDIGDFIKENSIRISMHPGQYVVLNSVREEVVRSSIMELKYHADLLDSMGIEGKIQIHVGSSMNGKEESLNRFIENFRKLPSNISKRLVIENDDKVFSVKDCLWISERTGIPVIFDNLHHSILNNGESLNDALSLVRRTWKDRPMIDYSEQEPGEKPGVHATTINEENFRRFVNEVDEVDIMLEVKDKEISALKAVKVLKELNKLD
The experiment in a line: X-ray crystallography.

B1: 15-mer duplex with 6-4 photoproduct (dsDNA)
DNA 1: GCGTCCTTGACGACG
DNA 2: CGTCGTCAAGGACGC
modifications: 6-4 photoproduct at T7-T8 of strand 1
In the case of B1, the binding result is given as “binds”.
